Experiments:
Experiment in all cases: filter binding
[1] = system: 80S ribosome, L11 H109F (Saccharomyces cerevisiae? (yeast)); conditions: aminoacylated (N-acetyl-Phe); Nitrocellulose filter binding, 30 C, 35 min (A-site) or 40 min (P-site), poly(U)-primed ribosomes; buffer, salt and pH not given; errors are SD
[2] = system: 80S ribosome, L11 H109E (Saccharomyces cerevisiae? (yeast)); conditions: aminoacylated (N-acetyl-Phe); Nitrocellulose filter binding, 30 C, 35 min (A-site) or 40 min (P-site), poly(U)-primed ribosomes; buffer, salt and pH not given; errors are SD
[3] = system: 80S ribosome, L11 87-90R (Saccharomyces cerevisiae? (yeast)); conditions: aminoacylated (N-acetyl-Phe); Nitrocellulose filter binding, 30 C, 35 min (A-site) or 40 min (P-site), poly(U)-primed ribosomes; buffer, salt and pH not given; errors are SD
[4] = system: 80S ribosome, L11 114-116R (Saccharomyces cerevisiae? (yeast)); conditions: aminoacylated (N-acetyl-Phe); Nitrocellulose filter binding, 30 C, 35 min (A-site) or 40 min (P-site), poly(U)-primed ribosomes; buffer, salt and pH not given; errors are SD
[5] = system: 80S ribosome, wild-type L11 (Saccharomyces cerevisiae? (yeast)); conditions: aminoacylated (N-acetyl-Phe); Nitrocellulose filter binding, 30 C, 35 min (A-site) or 40 min (P-site), poly(U)-primed ribosomes; buffer, salt and pH not given; errors are SD
[6] = system: 80S ribosome, wild-type L11 ((yeast)); conditions: poly(U), tRNAPhe in P-site, soluble factors; aminoacylated (Phe); Nitrocellulose filter binding, 30 C, 35 min (A-site) or 40 min (P-site), poly(U)-primed ribosomes; buffer, salt and pH not given; errors are SD
[7] = system: 80S ribosome, L11 H109E ((yeast)); conditions: poly(U), tRNAPhe in P-site, soluble factors; aminoacylated (Phe); Nitrocellulose filter binding, 30 C, 35 min (A-site) or 40 min (P-site), poly(U)-primed ribosomes; buffer, salt and pH not given; errors are SD

Ac-Phe-tRNAPhe (P-site)
Kd [1]: 99.2 nM | Kd [2]: 42.8 nM | Kd [3]: 122 nM | Kd [4]: 41 nM | Kd [5]: 72.3 nM

Phe-tRNAPhe (A-site)
Kd [6]: 97.6 nM | Kd [7]: 176 nM

Reference: paper PMC3098278
